From patent publication US20120093837A1 (CELL SIGNALING TECHNOLOGY INC A, published 2012)

Legend:
[1] = molecular target: T1, human EGFR with E746-A750 deletion (human, UniProt P00533 25-1210); experiment: IHC on paraffin-embedded xenografts and cell pellets
T1 construct: Endogenous mutant EGFR of HCC827 and H1650 cells and of NSCLC tumor samples; also called EGFR (E746-A750del); dEGFR
Description: To test the specificity of binding of the rabbit monoclonal antibodies described in Example 1, xenografts were prepared of human cancer cells in nude mice.
For […] analysis, all analyses were performed on formalin-fixed, paraffin-embedded blocks. Serial 4-um-thick tissue sections were cut from TMAs for immunohistochemistry study. The slides were baked at 55° C. overnight, then deparaffinized in xylene and rehydrated through a graded series of ethanol concentrations. Antigen retrieval (microwave boiling for 10 minutes in 1 mM EDTA) was performed. Intrinsic peroxidase activity was blocked by 3% hydrogen peroxide for 10 min. 5% goat serum (Sigma) solution was used for blocking nonspecific antibody binding, and the optimally diluted primary antibodies were applied to cover the specimen. Slides were incubated at 4° C. overnight. After three washes in TBS-T for 5 minutes each, slides were incubated for 30 min with labeled polymer-HRP anti-rabbit secondary antibody at room temperature. Following three additional washes in TBS-T, slides were visualized using substrate-chromagen (Envision™+kit, commercially available from Dako). Sections were scanned at low magnification. Intensity of the staining as well as percentage of positive cells was recorded. Stain intensity was scored from 0 to 3+, based on the, staining intensity and percentage of positive cells were recorded.

[2] = molecular target: phage-displayed peptide …; experiment: phage display biopanning on plate-coated antibody, PhD 12 library, three rounds

binding result [1]: no binding
Clone Frequency [2]: 1 of 9 clones
B1: EGFR L858R (43B2E11E5B2) rabbit monoclonal antibody (antibody, V domains shown)
VH: QSVEESGGRLVTPGTPLTLTCTVSGFSLNTYGVSWVRQAPGKGLEWIGYIFTDGQTYYASWAKGRFTISKTSSTTVDLKITSPTTEDTATYFCASVDIWGPGTPVTVSS
VL: AQVLTQTPSPVSAAVGSTVTIKCQSSPSVYSNYLSWYQQKSGQPPKQLIYDASHLASGVPSRFSGSGSGTQFTLTISGVQCDDAATYYCLGSYDCSSVDCHAFGGGTEVVVKG
notes: Rabbit monoclonal from a hybridoma clone; also called L858R RmAb; L858R-specific antibody
